Data reported in US10772928B2, “Modulation and detection of a neuronal alternative splicing regulatory network for treatment and diagnosis of neurological disorders” (The Governing Council of the University of Toronto, priority 2014, dated 2020).

T1: nSR100 (Mus musculus, UniProt Q8BKA3)
T1 construct: host or cells: mouse N2A cells
T1 sequence (Q8BKA3 1-608): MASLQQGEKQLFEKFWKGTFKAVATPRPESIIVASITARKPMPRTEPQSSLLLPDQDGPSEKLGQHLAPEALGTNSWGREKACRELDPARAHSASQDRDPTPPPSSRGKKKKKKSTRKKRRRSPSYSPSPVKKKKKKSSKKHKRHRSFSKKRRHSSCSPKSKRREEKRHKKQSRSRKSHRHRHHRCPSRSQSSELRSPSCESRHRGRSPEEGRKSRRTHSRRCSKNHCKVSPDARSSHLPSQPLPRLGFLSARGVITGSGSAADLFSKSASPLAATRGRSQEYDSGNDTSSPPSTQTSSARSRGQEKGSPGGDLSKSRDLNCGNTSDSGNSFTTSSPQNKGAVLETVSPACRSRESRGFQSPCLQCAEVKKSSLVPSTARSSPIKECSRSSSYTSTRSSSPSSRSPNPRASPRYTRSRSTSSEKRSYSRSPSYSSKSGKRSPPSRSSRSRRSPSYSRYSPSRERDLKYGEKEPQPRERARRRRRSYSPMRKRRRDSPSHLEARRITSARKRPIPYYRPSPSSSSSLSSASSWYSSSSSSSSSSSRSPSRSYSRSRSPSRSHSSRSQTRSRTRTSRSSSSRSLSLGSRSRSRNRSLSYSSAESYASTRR


Target: T1, nSR100
Experiment: AP-MS nSR100 interaction partners from mouse N2A cells (Table 5)
Assay type: binding
Conditions: for AvgP (average of the SAINT scores) / MaxP (maximal SAINT score): bait Srrm4; for FoldChange between the prey Avg spectra of the bait and control purifications: bait Srrm4, 0.1 added to prevent division by 0; for AvgSpec (average number of spectra per replicate): bait Srrm4, 2 replicates; for Spectra (number of spectra for the prey in the purification of the bait): AP-MS; for SpecSum: bait Srrm4, sum of spectra over 2 replicates
[1] = bait Srrm4, biological replicate 1 (first number of the cell)
[2] = bait Srrm4, biological replicate 2 (second number of the cell)

Text: By applying affinity purification coupled to mass-spectrometry (AP-MS), several interaction nSR100 partner proteins were detected that provide insight into mechanisms of post-translational regulation of nSR100 levels.

AvgP (average of the SAINT scores)	MaxP (maximal SAINT score)	FoldChange between the prey Avg spectra of the bait and control purifications	AvgSpec (average number of spectra per replicate)	Spectra (number of spectra for the prey in the purification of the bait) [1]	Spectra (number of spectra for the prey in the purification of the bait) [2]	SpecSum	Molecule
1	1	3.48	97.5	90	105	195	Sf3b3 (protein, UniProt Q921M3 1-1217, looked up) Splicing factor 3B subunit 3: MFLYNLTLQRATGISFAIHGNFSGTKQQEIVVSRGKILELLRPDPNTGKVHTLLTVEVFGVIRSLMAFRLTGGTKDYIVVGSDSGRIVILEYQPSKNMFEKIHQETFGKSGCRRIVPGQFLAVDPKGRAVMISAIEKQKLVYILNRDAAARLTISSPLEAHKANTLVYHVVGVDVGFENPMFACLEMDYEEADNDPTGEAAANTQQTLTFYELDLGLNHVVRKYSEPLEEHGNFLITVPGGSDGPSGVLICSENYITYKNFGDQPDIRCPIPRRRNDLDDPERGMIFVCSATHKTKSMFFFLAQTEQGDIFKITLETDEDMVTEIRLKYFDTVPVAAAMCVLKTGFLFVASEFGNHYLYQIAHLGDDDEEPEFSSAMPLEEGDTFFFQPRPLKNLVLVDELDSLSPILFCQIADLANEDTPQLYVACGRGPRSSLRVLRHGLEVSEMAVSELPGNPNAVWTVRRHIEDEFDAYIIVSFVNATLVLSIGETVEEVTDSGFLGTTPTLSCSLLGDDALVQVYPDGIRHIRADKRVNEWKTPGKKTIVKCAVNQRQVVIALTGGELVYFEMDPSGQLNEYTERKEMSADVVCMSLANVPPGEQRSRFLAVGLVDNTVRIISLDPSDCLQPLSMQALPAQPESLCIVEMGGTEKQDELGERGSIGFLYLNIGLQNGVLLRTVLDPVTGDLSDTRTRYLGSRPVKLFRVRMQGQEAVLAMSSRSWLSYSYQSRFHLTPLSYETLEFASGFASEQCPEGIVAISTNTLRILALEKLGAVFNQVAFPLQYTPRKFVIHPESNNLIIIETDHNAYTEATKAQRKQQMAEEMVEAAGEDERELAAEMAAAFLNENLPESIFGAPKAGNGQWASVIRVMNPIQGNTLDLVQLEQNEAAFSVAVCRFSNTGEDWYVLVGVAKDLILSPRSVAGGFVYTYKLVNNGEKLEFLHKTPVEEVPAAIAPFQGRVLIGVGKLLRVYDLGKKKLLRKCENKHIANYISGIQTIGHRVIVSDVQESFIWVRYKRNENQLIIFADDTYPRWVTTASLLDYDTVAGADKFGNICVVRLPPNTNDEVDEDPTGNKALWDRGLLNGASQKAEVIMNYHVGETVLSLQKTTLIPGGSESLVYTTLSGGIGILVPFTSHEDHDFFQHVEMHLRSEHPPLCGRDHLSFRSYYFPVKNVIDGDLCEQFNSMEPNKQKNVSEELDRTPPEVSKKLEDIRTRYAF
1	1	6.78	30.5	25	36	61	Srrm1 (protein, UniProt Q52KI8 1-946, looked up) Serine/arginine repetitive …: MDAGFFRGTSAEQDNRFSNKQKKLLKQLKFAECLEKKVDMSKVNLEVIKPWITKRVTEILGFEDDVVIEFIFNQLEVKNPDSKMMQINLTGFLNGKNAREFMGELWPLLLSAQENIAGIPSAFLELKKEEIKQRQIEQEKLASLKKQDEDKDKRDKEEKESSREKRERSRSPRRRKSRSPSPRRRSSPVRRERKRSHSRSPRHRTKSRSPSPAPEKKEKSPELPEPSVRMKDSSVQEATSTSDILKAPKPEPVPEPKEPSPEKNSKKEKEKTRPRSRSRSKSRSRTRSRSPSHTRPRRRHRSRSRSYSPRRRPSPRRRPSPRRRTPPRRMPPPPRHRRSRSPGRRRRRSSASLSGSSSSSSSSRSRSPPKKPPKRTSSPPRKTRRLSPSASPPRRRHRPSSPATPPPKTRHSPTPQQSNRTRKSRVSVSPGRTSGKVTKHKGTEKRESPSPAPKPRKVELSESEEDKGSKMAAADSVQQRRQYRRQNQQSSSDSGSSSTSEDERPKRSHVKNGEVGRRRRHSPSRSASPSPRKRQKETSPRMQMGKRWQSPVTKSSRRRRSPSPPPARRRRSPSPAPPPPPPPPPPRRRRSPTPPPRRRTPSPPPRRRSPSPRRYSPPIQRRYSPSPPPKRRTASPPPPPKRRASPSPPPKRRVSHSPPPKQRSPTVTKRRSPSLSSKHRKGSSPGRSTREARSPQPNKRHSPSPRPRAPQTSSPPPVRRGASASPQGRQSPSPSTRPIRRVSRTPEPKKIKKTAMATQRNIRRVSKSPKADSLSRAASPSPQSVRRVSSSRSVSGSPEPAAKKPPAPPSPVQSQSPSTNWSPAVPAKKAKSPTPSLSPARNSDQEGGGKKKKKKKDKKHKKDKKHKKHKKHKKEKAVTIATPATAAPAAVSAATTTSAQEEPAAAPEPRKETESEAEDDNLDDLERHLREKALRSMRKAQVSPQS
